{
  "source": "patent US20150239980A1",
  "about": "(NEOTOPE BOSCIENCES, published 2015)",
  "key": {"recombinant hMCAM-His [1]": {"target": "T1, recombinant hMCAM-His (human, UniProt P43121 24-559)", "T1 construct": "not shown: His tag", "T1 chain": "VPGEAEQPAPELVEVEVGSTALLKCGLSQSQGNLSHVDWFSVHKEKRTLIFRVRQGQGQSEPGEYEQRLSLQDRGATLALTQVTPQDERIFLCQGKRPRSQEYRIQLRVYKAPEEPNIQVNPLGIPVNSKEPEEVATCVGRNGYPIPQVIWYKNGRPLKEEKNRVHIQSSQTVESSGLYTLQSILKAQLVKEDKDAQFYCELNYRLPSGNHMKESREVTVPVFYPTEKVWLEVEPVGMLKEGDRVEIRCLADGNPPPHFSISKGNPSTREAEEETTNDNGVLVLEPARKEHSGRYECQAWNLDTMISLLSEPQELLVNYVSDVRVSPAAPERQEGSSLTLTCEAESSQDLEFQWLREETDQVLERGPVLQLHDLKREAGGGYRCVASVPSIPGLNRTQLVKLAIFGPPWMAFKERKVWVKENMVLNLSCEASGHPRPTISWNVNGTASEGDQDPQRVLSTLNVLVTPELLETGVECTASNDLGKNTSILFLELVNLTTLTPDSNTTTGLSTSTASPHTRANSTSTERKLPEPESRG", "experiment": "summary of ForteBio and competitive ELISA on hMCAM-His; vs rodent 2120", "method": "(§1) ELISA plates were coated with recombinant hMCAM-His, and blocked with casein buffer to prevent non-specific binding. Biotinylated rodent or chimeric antibody was added at a subsaturating concentration, in the presence or absence of 3× increasing concentrations of unlabeled competitor (humanized antibody, rodent, or chimeric). After washing to remove unbound antibody, streptavidin HRP was added to allow detection of the biotinylated antibody. The ELISA was developed with TMB substrate and the OD450 was measured. The IC50 of the unlabeled competitor was determined using the GraphPad Prism5 software.\n(§2) The affinities were measured using the ForteBio Octet Red. Anti-human Fc sensors were used to capture the humanized antibodies, and several concentrations of hMCAMHis analyte were used to determine the affinity using a 1:1 fitting model."}, "recombinant hMCAM-His [2]": {"target": "T1, recombinant hMCAM-His", "experiment": "ForteBio Octet Red, hMCAM-His analyte; Forte column 1; vs rodent 2120", "method": "as §2"}, "recombinant hMCAM-His [3]": {"target": "T1, recombinant hMCAM-His", "experiment": "ForteBio Octet Red, hMCAM-His analyte; Forte column 2; vs rodent 2120", "method": "as §2"}, "[4]": {"target": "T2, human MCAM (melanoma cell adhesion molecule) expressed on transfected CHO cells (human, UniProt P43121 24-646)", "T2 construct": "also called hMCAM; CD146", "T2 chain": "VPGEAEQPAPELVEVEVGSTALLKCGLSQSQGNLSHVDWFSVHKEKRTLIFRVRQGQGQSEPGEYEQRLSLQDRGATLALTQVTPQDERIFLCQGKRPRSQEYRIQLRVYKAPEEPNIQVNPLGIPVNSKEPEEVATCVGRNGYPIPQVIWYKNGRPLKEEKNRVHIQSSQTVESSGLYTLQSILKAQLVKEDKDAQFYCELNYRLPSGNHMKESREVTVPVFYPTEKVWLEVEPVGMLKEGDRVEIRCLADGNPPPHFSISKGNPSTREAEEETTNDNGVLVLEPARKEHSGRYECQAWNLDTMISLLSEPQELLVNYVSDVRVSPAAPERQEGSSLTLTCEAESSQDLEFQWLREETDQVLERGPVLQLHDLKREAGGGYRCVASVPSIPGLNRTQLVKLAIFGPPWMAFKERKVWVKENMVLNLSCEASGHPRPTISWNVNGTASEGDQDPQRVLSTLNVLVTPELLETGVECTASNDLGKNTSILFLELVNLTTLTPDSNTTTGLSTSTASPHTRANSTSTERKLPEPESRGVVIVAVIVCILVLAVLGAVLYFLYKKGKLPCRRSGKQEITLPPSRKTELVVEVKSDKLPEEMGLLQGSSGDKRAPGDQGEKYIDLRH", "experiment": "laminin/FACS on hMCAM CHO cells, competitor laminin 411; Expt#1; vs rodent 2120", "method": "(§3) Following incubation for 30-45 minutes, the cells were washed and anti-laminin conjugated to AF650 (NovusBio) was added to detect the bound laminin. The cells were run on a flow cytometer to measure the laminin binding signal."}, "[5]": {"target": "T2, human MCAM (melanoma cell adhesion …)", "experiment": "laminin/FACS on hMCAM CHO cells, competitor laminin 411; Expt#2; vs rodent 2120", "method": "as §3"}, "[6]": {"target": "T2, human MCAM (melanoma cell adhesion …)", "experiment": "summary of laminin blocking assay on hMCAM CHO cells, competitor laminin 411; vs rodent 2120", "method": "as §3"}, "recombinant hMCAM-His [7]": {"target": "T1, recombinant hMCAM-His", "experiment": "competitive ELISA on hMCAM-His, competitor biotinylated rodent or chimeric 2120; vs rodent 2120", "method": "as §1"}, "[8]": {"target": "T2, human MCAM (melanoma cell adhesion …)", "experiment": "laminin/FACS blocking assay, % inhibition of laminin 411 binding to hMCAM-expressing CHO cells against antibody concentration; blocked ligand: laminin 411", "method": "as §3"}, "recombinant hMCAM-His [9]": {"target": "T1, recombinant hMCAM-His", "experiment": "competitive ELISA on hMCAM-His, competitor biotinylated rodent or chimeric 2107; Expt. #1; vs rodent 2107", "summary_of_the_method": "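Plates coated with recombinant hMCAM-His and casein-blocked; biotinylated rodent or chimeric antibody at subsaturating level competed by 3× serial concentrations of unlabeled humanized, rodent or chimeric antibody. Bound biotinylated antibody detected with streptavidin-HRP/TMB at OD450; competitor IC50 fitted.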"}, "recombinant hMCAM-His [10]": {"target": "T1, recombinant hMCAM-His", "experiment": "competitive ELISA on hMCAM-His, competitor biotinylated rodent or chimeric 2107; Expt. #2; vs rodent 2107", "method": "as §1"}, "[11]": {"target": "T2, human MCAM (melanoma cell adhesion …)", "experiment": "laminin/FACS on hMCAM CHO cells, competitor laminin 411; Expt#2; seems to serve as the reference of the 2107 family in this column"}, "[12]": {"target": "T3, recombinant human laminin 511 (Biolamina) (human, UniProt O15230 36-3695; P07942 22-1786; P11047 34-1609)", "T3 construct": "negative control; also called laminin 10 (α5β1γ1)", "experiment": "SPR, Biacore T200"}, "[13]": {"target": "T4, Recombinant human laminin-α4 (R&D systems) (human, UniProt Q16363-2 826-1816)", "T4 construct": "also called laminin α-4 chain", "T4 sequence (looked up)": "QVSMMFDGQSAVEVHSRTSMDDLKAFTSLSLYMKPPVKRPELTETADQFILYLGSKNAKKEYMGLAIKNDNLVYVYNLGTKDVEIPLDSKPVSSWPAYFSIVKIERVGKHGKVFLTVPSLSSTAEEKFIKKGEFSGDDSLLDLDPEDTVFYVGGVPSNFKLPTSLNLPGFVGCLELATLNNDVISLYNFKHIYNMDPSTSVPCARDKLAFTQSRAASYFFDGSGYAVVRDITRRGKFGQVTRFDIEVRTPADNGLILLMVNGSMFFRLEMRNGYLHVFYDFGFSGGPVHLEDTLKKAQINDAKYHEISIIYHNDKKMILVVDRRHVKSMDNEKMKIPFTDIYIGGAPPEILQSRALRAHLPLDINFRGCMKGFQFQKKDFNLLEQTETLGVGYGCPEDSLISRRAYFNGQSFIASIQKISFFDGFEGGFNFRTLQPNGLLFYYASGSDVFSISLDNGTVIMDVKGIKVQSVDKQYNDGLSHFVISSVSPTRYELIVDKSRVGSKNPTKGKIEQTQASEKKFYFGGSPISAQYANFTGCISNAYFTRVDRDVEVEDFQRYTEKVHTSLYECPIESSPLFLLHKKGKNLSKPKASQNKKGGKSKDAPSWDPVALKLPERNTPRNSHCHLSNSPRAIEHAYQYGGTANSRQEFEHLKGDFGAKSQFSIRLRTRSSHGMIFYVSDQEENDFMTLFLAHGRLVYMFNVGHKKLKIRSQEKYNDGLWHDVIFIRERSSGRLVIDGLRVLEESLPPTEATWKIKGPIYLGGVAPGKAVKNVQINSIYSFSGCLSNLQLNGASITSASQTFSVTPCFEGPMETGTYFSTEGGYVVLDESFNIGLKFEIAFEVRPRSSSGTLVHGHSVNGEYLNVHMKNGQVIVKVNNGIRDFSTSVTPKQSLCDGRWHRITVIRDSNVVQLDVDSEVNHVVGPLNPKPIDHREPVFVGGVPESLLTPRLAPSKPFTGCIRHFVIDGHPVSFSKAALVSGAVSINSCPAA", "experiment": "SPR, Biacore T200, Fc-tagged MCAM IgG1-2A captured by anti-Fc, laminin-α4 as analyte, 1:1 model", "method": "(§4) The binding affinity of the human laminin-α4 to human MCAM IgG1-2A was measured by Surface Plasmon Resonance on a Biacore T200 machine. Human Fc-specific F(ab′)₂ IgG (Jackson Laboratories) was immobilized on a CM5 chip using amine coupling. The four flow cells of the CM5 chips dextran surface are activated by a 7 min injection of freshly prepared 1:1 50 mM NHS: EDC at a flow rate of 5 μl/min. 70 μl IgG solution (pH 4.5) was injected for 3 min to a density of up to 3 000 RU. The coupling is then blocked by a 7 min injection of 1M ethanolamine to deactivate residual reactive sites. Recombinant human Fc-tagged MCAM IgG1-2A in degassed and filtered HBS-P buffer containing 12 mg/ml BSA and 12 mg/ml carboxy-methylated dextran sodium salt was captured by anti-Fc IgG to a capture level 1560 RU. Recombinant human Fc-tagged MCAM IgG1-2A was centrifuged at 14 000 rpm for 5 min at 4° C. before injection for 20 min at a flow rate of 5 μl/min over the anti-Fc IgG containing surface. Flow cell 1 was left free of IgG to serve as a control surface. One flow cell was used to capture recombinant human IgG1 Fc (R&D systems) to serve as a negative control. […] Buffer injections served as negative control. Data evaluation: Data from the buffer injections and the control surface were subtracted to remove artifacts. […]"}, "[14]": {"target": "T5, recombinant human laminin 411 (Biolamina) (human, UniProt Q16363 25-1823; P07942 22-1786; P11047 34-1609)", "T5 construct": "also called laminin 8", "T5 sequence (P07942 22-1786, chain 2 of 2)": "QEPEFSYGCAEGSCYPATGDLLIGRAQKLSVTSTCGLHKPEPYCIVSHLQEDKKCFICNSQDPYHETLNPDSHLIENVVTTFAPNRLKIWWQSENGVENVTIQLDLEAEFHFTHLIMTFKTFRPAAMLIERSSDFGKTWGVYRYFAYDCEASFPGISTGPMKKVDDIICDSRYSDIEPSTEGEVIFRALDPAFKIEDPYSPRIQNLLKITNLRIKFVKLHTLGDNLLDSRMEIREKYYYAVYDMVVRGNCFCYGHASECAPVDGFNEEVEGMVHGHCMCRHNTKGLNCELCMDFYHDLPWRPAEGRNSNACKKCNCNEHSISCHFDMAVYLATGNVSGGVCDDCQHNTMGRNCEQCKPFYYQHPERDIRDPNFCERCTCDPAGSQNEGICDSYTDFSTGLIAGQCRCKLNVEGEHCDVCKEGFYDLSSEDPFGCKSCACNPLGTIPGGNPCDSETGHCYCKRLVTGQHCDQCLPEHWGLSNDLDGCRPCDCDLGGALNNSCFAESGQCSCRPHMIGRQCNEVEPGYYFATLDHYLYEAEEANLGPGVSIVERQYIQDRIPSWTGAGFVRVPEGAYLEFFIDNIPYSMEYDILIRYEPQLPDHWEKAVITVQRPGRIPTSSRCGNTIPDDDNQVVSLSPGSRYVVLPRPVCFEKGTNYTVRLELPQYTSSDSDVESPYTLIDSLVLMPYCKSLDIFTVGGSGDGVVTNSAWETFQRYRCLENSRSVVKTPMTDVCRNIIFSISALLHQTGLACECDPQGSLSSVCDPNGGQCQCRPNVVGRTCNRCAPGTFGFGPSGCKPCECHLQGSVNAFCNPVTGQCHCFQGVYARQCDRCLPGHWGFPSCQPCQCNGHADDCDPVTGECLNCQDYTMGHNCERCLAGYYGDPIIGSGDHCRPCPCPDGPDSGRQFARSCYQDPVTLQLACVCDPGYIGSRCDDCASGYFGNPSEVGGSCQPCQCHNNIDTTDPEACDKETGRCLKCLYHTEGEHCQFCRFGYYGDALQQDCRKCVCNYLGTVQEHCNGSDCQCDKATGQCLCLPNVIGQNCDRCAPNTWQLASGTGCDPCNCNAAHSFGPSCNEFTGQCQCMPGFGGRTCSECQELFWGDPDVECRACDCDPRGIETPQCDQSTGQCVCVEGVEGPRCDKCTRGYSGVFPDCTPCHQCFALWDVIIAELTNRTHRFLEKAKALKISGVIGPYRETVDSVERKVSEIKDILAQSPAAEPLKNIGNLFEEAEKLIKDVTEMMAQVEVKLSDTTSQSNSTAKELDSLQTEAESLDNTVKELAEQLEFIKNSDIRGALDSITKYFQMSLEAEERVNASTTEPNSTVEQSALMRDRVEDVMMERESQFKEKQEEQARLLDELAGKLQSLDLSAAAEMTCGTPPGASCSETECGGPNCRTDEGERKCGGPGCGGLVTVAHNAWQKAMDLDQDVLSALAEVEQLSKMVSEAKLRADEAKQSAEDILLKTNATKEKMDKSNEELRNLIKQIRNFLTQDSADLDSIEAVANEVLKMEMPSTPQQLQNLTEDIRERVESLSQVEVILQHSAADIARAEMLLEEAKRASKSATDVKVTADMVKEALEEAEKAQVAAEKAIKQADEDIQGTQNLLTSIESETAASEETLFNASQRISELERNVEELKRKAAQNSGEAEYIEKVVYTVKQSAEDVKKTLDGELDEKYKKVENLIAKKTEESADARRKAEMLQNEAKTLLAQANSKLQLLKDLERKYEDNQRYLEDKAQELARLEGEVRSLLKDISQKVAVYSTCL", "T5 sequence (P11047 34-1609, chain 3 of 2)": "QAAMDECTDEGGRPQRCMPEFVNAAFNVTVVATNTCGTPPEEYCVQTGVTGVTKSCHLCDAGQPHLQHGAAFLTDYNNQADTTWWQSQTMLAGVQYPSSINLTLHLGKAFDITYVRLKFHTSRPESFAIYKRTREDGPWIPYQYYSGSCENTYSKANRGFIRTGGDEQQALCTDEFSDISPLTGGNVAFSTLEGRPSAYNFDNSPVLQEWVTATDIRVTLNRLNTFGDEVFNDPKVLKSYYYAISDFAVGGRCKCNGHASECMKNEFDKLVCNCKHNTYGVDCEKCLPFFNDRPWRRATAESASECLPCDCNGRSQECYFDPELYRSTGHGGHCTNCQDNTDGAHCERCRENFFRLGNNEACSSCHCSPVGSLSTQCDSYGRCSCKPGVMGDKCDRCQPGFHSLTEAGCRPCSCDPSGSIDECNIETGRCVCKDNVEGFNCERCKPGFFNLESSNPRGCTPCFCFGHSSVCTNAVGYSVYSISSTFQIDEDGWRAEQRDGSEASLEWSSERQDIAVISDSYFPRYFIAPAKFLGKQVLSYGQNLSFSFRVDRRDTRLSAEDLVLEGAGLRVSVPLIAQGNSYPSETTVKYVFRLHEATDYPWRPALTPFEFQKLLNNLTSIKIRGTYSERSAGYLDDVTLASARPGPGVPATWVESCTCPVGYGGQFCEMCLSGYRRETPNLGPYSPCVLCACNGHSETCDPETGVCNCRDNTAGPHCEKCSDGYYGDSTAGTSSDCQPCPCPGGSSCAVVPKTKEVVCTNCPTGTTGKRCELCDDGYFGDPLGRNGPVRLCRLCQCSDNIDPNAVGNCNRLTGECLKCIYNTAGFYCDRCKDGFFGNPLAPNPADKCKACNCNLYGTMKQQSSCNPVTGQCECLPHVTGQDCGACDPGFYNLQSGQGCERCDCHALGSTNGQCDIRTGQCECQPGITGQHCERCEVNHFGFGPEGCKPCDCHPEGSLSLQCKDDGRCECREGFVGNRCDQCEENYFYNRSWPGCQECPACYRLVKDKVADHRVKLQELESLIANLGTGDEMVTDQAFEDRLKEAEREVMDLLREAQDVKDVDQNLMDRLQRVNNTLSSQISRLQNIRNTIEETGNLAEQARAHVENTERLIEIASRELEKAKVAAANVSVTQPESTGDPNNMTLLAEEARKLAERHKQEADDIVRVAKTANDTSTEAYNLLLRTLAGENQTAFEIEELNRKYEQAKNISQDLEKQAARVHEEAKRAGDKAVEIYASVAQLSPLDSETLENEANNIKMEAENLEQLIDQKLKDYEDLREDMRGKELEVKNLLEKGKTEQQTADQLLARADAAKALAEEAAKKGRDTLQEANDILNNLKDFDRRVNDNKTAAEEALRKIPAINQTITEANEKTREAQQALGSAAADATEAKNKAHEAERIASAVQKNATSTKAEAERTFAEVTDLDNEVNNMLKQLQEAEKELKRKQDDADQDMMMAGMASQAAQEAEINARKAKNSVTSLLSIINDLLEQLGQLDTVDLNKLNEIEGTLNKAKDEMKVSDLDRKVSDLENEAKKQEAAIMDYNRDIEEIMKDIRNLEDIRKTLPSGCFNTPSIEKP", "experiment": "SPR, Biacore T200, Fc-tagged MCAM IgG1-2A captured by anti-Fc, laminin 411 as analyte, steady state", "method": "as §4"}},
  "data": [
    {"binder": "h2120_VH5 + h2120_VL3 (antibody, human IgG1, V domains shown, also called h2120VH5VL3; VH5VL3) VH: QVTLKESGPVLVKPTETLTLTCTVSGFSLTSNAVSWVRQPPGKALEWIAAISSGGTTYYNSAFKSRLTISRDTSKSQVVLTMTNMDPVDTATYYCARRYGYGWYFDFWGQGTLVTVSS VL: DIQMTQSPSSLSASVGDRVTINCKASQNIYNSLAWYQQKPGKAPKVLIFNANSLQTGIPSRFSGSGSGTDFTLTISSLQPEDFATYYCQQFYSGYTFGQGTKLEIK", "values": [
      {"measurement": "fold reduction in affinity compared to the rodent", "setting": "recombinant hMCAM-His [1]", "result": "< 2", "unit": "fold"},
      {"measurement": "fold over rodent (Forte affinity)", "setting": "recombinant hMCAM-His [2]", "result": 1.1, "unit": "fold"},
      {"measurement": "fold over rodent (Forte affinity)", "setting": "recombinant hMCAM-His [3]", "result": 1.2, "unit": "fold"},
      {"measurement": "fold over rodent (blocking, laminin/FACS)", "setting": "[4]", "result": 1.2, "unit": "fold"},
      {"measurement": "fold over rodent (blocking, laminin/FACS)", "setting": "[5]", "result": 1.5, "unit": "fold"},
      {"measurement": "fold reduction in potency compared to the rodent", "setting": "[6]", "result": "< 2", "unit": "fold"},
      {"measurement": "fold over rodent (competitive ELISA)", "setting": "recombinant hMCAM-His [7]", "result": 2.4, "unit": "fold"},
      {"measurement": "IC50 (read off the curve)", "setting": "[8]", "result": "~0.6", "unit": "µg/mL"}
    ]},
    {"binder": "chimeric 2107 (antibody, V domains shown) VH: QVQLKESGPGLVQSSQTLSLTCTVSGFSLTSNGVSWVRQPPGKGLEWIAAISSGGSTYYNSAFKSRLSISRNTSKSQVLLKMNSLQTEDTGMYFCARHRPFYFDYWGQGVMVTVSS VL: DIQVTQSPSLLSASVGDRVTLNCKGSQNIYKSLAWFRLKRGEAPKLLIYDANSLQTGIPSRFSGSGSGTDFTLTITSLQPEDVATYFCQQYYSGYTFGAGTKLELK", "values": [
      {"measurement": "fold over rodent (competitive ELISA)", "setting": "recombinant hMCAM-His [9]", "result": 0.68, "unit": "fold"},
      {"measurement": "fold over rodent (competitive ELISA)", "setting": "recombinant hMCAM-His [10]", "result": 1.01, "unit": "fold"},
      {"measurement": "fold over rodent (blocking, laminin/FACS)", "setting": "[11]", "result": 1, "unit": "fold"}
    ]},
    {"binder": "Recombinant human Fc-tagged MCAM IgG1-2A (human MCAM domains 1 and 2, amino acids 19-242) (Fc fusion, also called human MCAM IgG1-2A; MCAM Fc domains 1 and 2; not shown: human Fc tag) PRVAGVPGEAEQPAPELVEVEVGSTALLKCGLSQSQGNLSHVDWFSVHKEKRTLIFRVRQGQGQSEPGEYEQRLSLQDRGATLALTQVTPQDERIFLCQGKRPRSQEYRIQLRVYKAPEEPNIQVNPLGIPVNSKEPEEVATCVGRNGYPIPQVIWYKNGRPLKEEKNRVHIQSSQTVESSGLYTLQSILKAQLVKEDKDAQFYCELNYRLPSGNHMKESREVT", "values": [
      {"measurement": "binding result", "setting": "[12]", "result": "no binding (tested: 5-175 nM)"},
      {"measurement": "Kd", "setting": "[13]", "result": 60, "unit": "nM"},
      {"measurement": "Kd", "setting": "[14]", "result": 66, "unit": "nM"}
    ]}
  ]
}
